From IntAct's records for PubMed 21532587

B1: Casein kinase I homolog HRR25 (Saccharomyces cerevisiae), P29295 (parent)
chain: MDLRVGRKFRIGRKIGSGSFGDIYHGTNLISGEEVAIKLESIRSRHPQLDYESRVYRYLSGGVGIPFIRWFGREGEYNAMVIDLLGPSLEDLFNYCHRRFSFKTVIMLALQMFCRIQYIHGRSFIHRDIKPDNFLMGVGRRGSTVHVIDFGLSKKYRDFNTHRHIPYRENKSLTGTARYASVNTHLGIEQSRRDDLESLGYVLIYFCKGSLPWQGLKATTKKQKYDRIMEKKLNVSVETLCSGLPLEFQEYMAYCKNLKFDEKPDYLFLARLFKDLSIKLEYHNDHLFDWTMLRYTKAMVEKQRDLLIEKGDLNANSNAASASNSTDNKSETFNKIKLLAMKKFPTHFHYYKNEDKHNPSPEEIKQQTILNNNAASSLPEELLNALDKGMENLRQQQPQQQVQSSQPQPQPQQLQQQPNGQRPNYYPEPLLQQQQRDSQEQQQQVPMATTRATQYPPQINSNNFNTNQASVPPQMRSNPQQPPQDKPAGQSIWL
partner: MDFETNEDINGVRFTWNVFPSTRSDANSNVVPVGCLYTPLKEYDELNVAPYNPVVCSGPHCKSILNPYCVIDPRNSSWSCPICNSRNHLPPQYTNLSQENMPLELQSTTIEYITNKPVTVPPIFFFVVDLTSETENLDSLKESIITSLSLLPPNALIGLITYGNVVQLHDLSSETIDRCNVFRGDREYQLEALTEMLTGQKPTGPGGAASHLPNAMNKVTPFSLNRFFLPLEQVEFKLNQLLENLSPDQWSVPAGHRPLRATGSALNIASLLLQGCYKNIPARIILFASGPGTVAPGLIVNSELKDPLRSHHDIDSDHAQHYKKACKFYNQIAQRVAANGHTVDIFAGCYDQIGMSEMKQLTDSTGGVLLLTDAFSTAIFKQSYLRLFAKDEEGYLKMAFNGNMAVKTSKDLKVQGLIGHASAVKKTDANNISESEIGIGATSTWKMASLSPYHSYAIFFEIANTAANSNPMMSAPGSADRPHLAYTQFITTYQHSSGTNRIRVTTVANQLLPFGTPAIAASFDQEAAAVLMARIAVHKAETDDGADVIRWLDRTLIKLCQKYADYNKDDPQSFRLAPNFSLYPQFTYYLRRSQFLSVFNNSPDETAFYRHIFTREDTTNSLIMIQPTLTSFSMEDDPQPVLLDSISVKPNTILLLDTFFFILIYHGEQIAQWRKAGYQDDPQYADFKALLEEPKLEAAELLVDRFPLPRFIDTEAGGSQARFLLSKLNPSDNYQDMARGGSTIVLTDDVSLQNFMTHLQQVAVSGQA
B2: Protein transport protein SEC23 (Saccharomyces cerevisiae), P15303 (parent)
chain: B1 partner
B3: Protein transport protein SEC23 (Saccharomyces cerevisiae), P15303 (parent)
chain: B1 partner
partner: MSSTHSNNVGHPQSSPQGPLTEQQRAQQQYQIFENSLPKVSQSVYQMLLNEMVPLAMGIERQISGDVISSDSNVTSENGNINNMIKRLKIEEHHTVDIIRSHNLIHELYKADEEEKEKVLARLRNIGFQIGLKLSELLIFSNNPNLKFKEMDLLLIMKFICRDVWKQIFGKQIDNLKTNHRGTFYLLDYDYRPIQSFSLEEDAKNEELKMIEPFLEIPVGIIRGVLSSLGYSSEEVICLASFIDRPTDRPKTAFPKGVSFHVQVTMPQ
B4: Casein kinase I homolog HRR25 (Saccharomyces cerevisiae), P29295 (parent)
chain: B1 chain
partner: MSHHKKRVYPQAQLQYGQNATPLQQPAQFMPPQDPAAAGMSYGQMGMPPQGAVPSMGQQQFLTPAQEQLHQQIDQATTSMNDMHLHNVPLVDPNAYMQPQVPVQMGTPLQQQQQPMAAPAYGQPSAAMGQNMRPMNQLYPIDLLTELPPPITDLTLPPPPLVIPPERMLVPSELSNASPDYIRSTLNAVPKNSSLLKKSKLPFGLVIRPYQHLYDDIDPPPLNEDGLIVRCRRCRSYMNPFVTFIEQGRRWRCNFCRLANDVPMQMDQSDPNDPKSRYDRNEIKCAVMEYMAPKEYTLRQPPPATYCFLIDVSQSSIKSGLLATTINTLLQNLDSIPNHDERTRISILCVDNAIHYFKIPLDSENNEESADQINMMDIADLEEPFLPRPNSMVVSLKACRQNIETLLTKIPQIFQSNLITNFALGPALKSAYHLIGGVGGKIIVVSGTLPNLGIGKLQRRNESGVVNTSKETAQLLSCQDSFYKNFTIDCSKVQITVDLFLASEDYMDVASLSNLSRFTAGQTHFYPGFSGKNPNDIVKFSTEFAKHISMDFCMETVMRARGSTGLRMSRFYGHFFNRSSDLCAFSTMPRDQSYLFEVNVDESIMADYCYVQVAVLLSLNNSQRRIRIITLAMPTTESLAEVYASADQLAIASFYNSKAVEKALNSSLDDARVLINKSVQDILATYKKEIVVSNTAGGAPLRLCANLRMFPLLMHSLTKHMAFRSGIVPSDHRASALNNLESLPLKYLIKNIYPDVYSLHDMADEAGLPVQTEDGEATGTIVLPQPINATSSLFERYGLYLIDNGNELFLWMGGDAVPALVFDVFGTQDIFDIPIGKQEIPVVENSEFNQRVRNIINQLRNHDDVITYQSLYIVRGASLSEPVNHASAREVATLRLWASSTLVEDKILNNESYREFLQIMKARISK

Variants of: B1
Settings: with sec23_yeast SEC23, P15303

Row | effect of a mutation on the interaction | Variant
1 | disrupting interaction | K38A

Variants of: B2
Settings: with sar1_yeast SAR1, P20606
Sequence of sar1_yeast SAR1, P20606 (P20606 whole entry): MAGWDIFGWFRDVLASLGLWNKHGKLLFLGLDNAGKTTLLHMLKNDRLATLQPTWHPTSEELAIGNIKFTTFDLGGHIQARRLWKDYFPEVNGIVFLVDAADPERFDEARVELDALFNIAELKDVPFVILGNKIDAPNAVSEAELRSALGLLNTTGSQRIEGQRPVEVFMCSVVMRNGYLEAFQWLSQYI

Row | effect of a mutation on the interaction | Variant
2 | disrupting interaction | S742D;T747E
3 | disrupting interaction | T747E
4 | disrupting interaction | S742D

Variants of: B3
Settings: with trs33_yeast TRS33, Q99394

Row | effect of a mutation on the interaction | Variant
5 | decreasing interaction | S742D;T747E

Variants of: B4
Settings: with sec24_yeast SEC24, P40482

Row | effect of a mutation on the interaction | Variant
6 | disrupting interaction | K38A
